# From patent EP4748847A1, “PEPTIDE COMPLEX HAVING VEGFR -2 AGONIST ACTIVITY” (Peptidream Inc, priority 2023, dated 2025)
# *1 amine or outer side, *2 acyl side, *3 side chain or, on linkers, in order; H or OH if unused. Bridges are numbered along the chain shown (N, C = ends). Primed or numbered codes have the meaning given here. Where no end group is shown, it is not given here. [ ]: non-standard residue; d: D form. CO(CH2)2(OCH2CH2)17CO = O=C(CCOCCOCCOCCOCCOCCOCCOCCOCCOCCOCCOCCOCCOCCOCCOCCOCCOCCC(=O)[*:2])[*:1]; Met(O2) = CS(=O)(=O)CC[C@H](N)C(=O)O; hTyr = N[C@@H](CCc1ccc(O)cc1)C(=O)O; Hyp = O=C(O)[C@@H]1C[C@@H](O)CN1; hArg = N=C(N)NCCCC[C@H](N)C(=O)O; hPhe = N[C@@H](CCc1ccccc1)C(=O)O; Chg = N[C@H](C(=O)O)C1CCCCC1; Tle = CC(C)(C)[C@H](N)C(=O)O; F4aao = not defined here; Ahp′ = not defined here; H4Py = not defined here; Atb = not defined here; F4C = not defined here; Yph = not defined here
# B1: Peptide complex Dimer Structure No. 4 (peptide)
# peptide: {CH2CO}-WWVDV[hPhe]DDLYFVDCG
# modifications: thioether N-14; also: dimer: C-terminus joined to second copy by PEG12c-K-PEG12c
# B2: Peptide complex Dimer Structure No. 10 (peptide)
# peptide: {CH2CO}-WWVDVQDDLYFVACG
# modifications: thioether N-14; also: dimer: Gly15 C-terminus joined to second copy by PEG12c-K-PEG12c
# B3: Peptide complex Dimer Structure No. 11 (peptide)
# peptide: {CH2CO}-WWVDVQDDLYFVSCG
# modifications: thioether N-14; also: dimer: Gly15 C-terminus joined to second copy by PEG12c-K-PEG12c
# B4: Peptide complex Dimer Structure No. 12 (peptide)
# peptide: {CH2CO}-WWVDVQDDLYFVDCG
# modifications: thioether N-14; also: dimer: Gly15 C-terminus joined to second copy by K-cPEG17c-K
# B5: Peptide complex Dimer Structure No. 15 (peptide)
# peptide: {CH2CO}-WWVD[Tle]KDDLYFVDCG-NH2
# modifications: thioether N-14; not fully specified (residue 6); also: homodimer: Lys6 joined to Lys6 of second copy by cPEG17c (Linker Structure No. 4)
# B6: Peptide complex Dimer Structure No. 44 (peptide)
# peptide: {CH2CO}-WW[Tle]DVKDDLYF[hTyr]DCG-NH2
# modifications: thioether N-14; also: homodimer: Lys6 joined to Lys6 of second copy by cPEG17c (Linker Structure No. 4)
# B7: Peptide complex Dimer Structure No. 48 (peptide)
# peptide: {CH2CO}-WW[Tle]DVKDD[Atb]YF[hTyr]DCG-NH2
# modifications: thioether N-14; reading uncertain; also: homodimer: Lys6 joined to Lys6 of second copy by cPEG17c (Linker Structure No. 4)
# B8: Peptide complex Dimer Structure No. 50 (peptide)
# peptide: {CH2CO}-WWVDVKDDLYFVDCG-NH2
# modifications: thioether N-14; also: homodimer: Lys6 joined to Lys6 of second copy by OCOPEG17OCO (Linker Structure No. 6)
# B9: Peptide complex Dimer Structure No. 54 (peptide)
# peptide: {CH2CO}-WW[Tle]DVKDD[Atb]Y[F4G][hTyr][Hyp]CG-NH2
# modifications: thioether N-14; reading uncertain; also: dimer: Lys6 joined to Lys6 of second copy by OCOPEG13OCO (Linker Structure No. 5)
# B10: Peptide complex Dimer Structure No. 55 (peptide)
# peptide: {CH2CO}-WW[Tle]DVKDD[Atb]Y[F4G][hTyr]DCG-NH2
# modifications: thioether N-14; reading uncertain; also: dimer: Lys6 joined to Lys6 of second copy by OCOPEG13OCO (Linker Structure No. 5)
# B11: Peptide complex Dimer Structure No. 56 (peptide)
# peptide: {CH2CO}-WW[hTyr]DVKDD[Atb]Y[F4G]VDCG-NH2
# modifications: thioether N-14; reading uncertain; also: dimer: Lys6 joined to Lys6 of second copy by OCOPEG13OCO (Linker Structure No. 5)
# B12: Peptide complex Dimer Structure No. 57 (peptide)
# peptide: {CH2CO}-WW[hTyr]DVKDD[Atb]Y[F4G][hTyr]DCG-NH2
# modifications: thioether N-14; reading uncertain; also: dimer: Lys6 joined to Lys6 of second copy by OCOPEG13OCO (Linker Structure No. 5)
# B13: Peptide complex Dimer Structure No. 26 (peptide)
# peptide: {CH2CO}-WW[Tle]QVKDDLYF[hTyr]DCG-NH2
# modifications: thioether N-14; not fully specified (residue 6); also: homodimer: Lys6 joined to Lys6 of second copy by cPEG17c (Linker Structure No. 4)
# B14: Peptide complex Dimer Structure No. 28 (peptide)
# peptide: {CH2CO}-WW[Tle]D[Chg]KDDLYF[hTyr]DCG-NH2
# modifications: thioether N-14; not fully specified (residue 6); also: homodimer: Lys6 joined to Lys6 of second copy by cPEG17c (Linker Structure No. 4)
# B15: Peptide complex Dimer Structure No. 30 (peptide)
# peptide: {CH2CO}-WW[Tle]DVKDDLY[F4C][hTyr]DCG-NH2
# modifications: thioether N-14; not fully specified (residue 6); reading uncertain; also: homodimer: Lys6 joined to Lys6 of second copy by cPEG17c (Linker Structure No. 4)
# B16: Peptide complex Dimer Structure No. 32 (peptide)
# peptide: {CH2CO}-WW[Tle]DVK(CO(CH2)2(OCH2CH2)17CO)DDLYF[H4Py]DCG-NH2
# modifications: thioether N-14; reading uncertain; also: dimer joined at Lys6 side chains by cPEG17c
# B17: Peptide complex Dimer Structure No. 34 (peptide)
# peptide: {CH2CO}-WW[Tle]DVKDDLYF[hTyr]FCG-NH2
# modifications: thioether N-14; also: homodimer: Lys6 joined to Lys6 of second copy by cPEG17c (Linker Structure No. 4)
# B18: Peptide complex Dimer Structure No. 35 (peptide)
# peptide: {CH2CO}-WW[Tle]DVKDDLYF[hTyr][F4aao]CG-NH2
# modifications: thioether N-14; reading uncertain; also: homodimer: Lys6 joined to Lys6 of second copy by cPEG17c (Linker Structure No. 4)
# B19: Peptide complex Dimer Structure No. 36 (peptide)
# peptide: {CH2CO}-WW[Tle]DV[Ahp′]DDLYF[hTyr]DCG
# modifications: thioether N-14; not fully specified (C-terminus); reading uncertain; also: dimer: Gly15 C-terminus joined to second copy by PEG12c-K-PEG12c (Linker Structure No. 1)
# B20: Peptide complex Dimer Structure No. 37 (peptide)
# peptide: {CH2CO}-WWVDVKGVNYF[hTyr]DCG-NH2
# modifications: thioether N-14; also: homodimer: Lys6 joined to Lys6 of second copy by OCOPEG13OCO (Linker Structure No. 5)
# B21: Peptide complex Dimer Structure No. 38 (peptide)
# peptide: {CH2CO}-WWV[Met(O2)]VKDDLYF[hTyr]DCG-NH2
# modifications: thioether N-14; also: homodimer: Lys6 joined to Lys6 of second copy by OCOPEG13OCO (Linker Structure No. 5)
# B22: Peptide complex Dimer Structure No. 39 (peptide)
# peptide: {CH2CO}-WWVDVKDDLY[Yph]V[hArg]CG-NH2
# modifications: thioether N-14; reading uncertain; also: homodimer: Lys6 joined to Lys6 of second copy by OCOPEG13OCO (Linker Structure No. 5)
# B23: Peptide complex Dimer Structure No. 40 (peptide)
# peptide: {CH2CO}-WW[hTyr]DVKDDLY[F4G]VDCG-NH2
# modifications: thioether N-14; also: homodimer: Lys6 joined to Lys6 of second copy by OCOPEG13OCO (Linker Structure No. 5)
# B24: Peptide complex Dimer Structure No. 41 (peptide)
# peptide: {CH2CO}-WWVDVKDDLY[F4G][hTyr][Hyp]CG-NH2
# modifications: thioether N-14; also: homodimer: Lys6 joined to Lys6 of second copy by OCOPEG13OCO (Linker Structure No. 5)
# Target: T1, VEGFR-2 (human, UniProt P35968 20-1356)
# Assay: cell-based or functional assay
# T1 sequence (P35968 20-1356): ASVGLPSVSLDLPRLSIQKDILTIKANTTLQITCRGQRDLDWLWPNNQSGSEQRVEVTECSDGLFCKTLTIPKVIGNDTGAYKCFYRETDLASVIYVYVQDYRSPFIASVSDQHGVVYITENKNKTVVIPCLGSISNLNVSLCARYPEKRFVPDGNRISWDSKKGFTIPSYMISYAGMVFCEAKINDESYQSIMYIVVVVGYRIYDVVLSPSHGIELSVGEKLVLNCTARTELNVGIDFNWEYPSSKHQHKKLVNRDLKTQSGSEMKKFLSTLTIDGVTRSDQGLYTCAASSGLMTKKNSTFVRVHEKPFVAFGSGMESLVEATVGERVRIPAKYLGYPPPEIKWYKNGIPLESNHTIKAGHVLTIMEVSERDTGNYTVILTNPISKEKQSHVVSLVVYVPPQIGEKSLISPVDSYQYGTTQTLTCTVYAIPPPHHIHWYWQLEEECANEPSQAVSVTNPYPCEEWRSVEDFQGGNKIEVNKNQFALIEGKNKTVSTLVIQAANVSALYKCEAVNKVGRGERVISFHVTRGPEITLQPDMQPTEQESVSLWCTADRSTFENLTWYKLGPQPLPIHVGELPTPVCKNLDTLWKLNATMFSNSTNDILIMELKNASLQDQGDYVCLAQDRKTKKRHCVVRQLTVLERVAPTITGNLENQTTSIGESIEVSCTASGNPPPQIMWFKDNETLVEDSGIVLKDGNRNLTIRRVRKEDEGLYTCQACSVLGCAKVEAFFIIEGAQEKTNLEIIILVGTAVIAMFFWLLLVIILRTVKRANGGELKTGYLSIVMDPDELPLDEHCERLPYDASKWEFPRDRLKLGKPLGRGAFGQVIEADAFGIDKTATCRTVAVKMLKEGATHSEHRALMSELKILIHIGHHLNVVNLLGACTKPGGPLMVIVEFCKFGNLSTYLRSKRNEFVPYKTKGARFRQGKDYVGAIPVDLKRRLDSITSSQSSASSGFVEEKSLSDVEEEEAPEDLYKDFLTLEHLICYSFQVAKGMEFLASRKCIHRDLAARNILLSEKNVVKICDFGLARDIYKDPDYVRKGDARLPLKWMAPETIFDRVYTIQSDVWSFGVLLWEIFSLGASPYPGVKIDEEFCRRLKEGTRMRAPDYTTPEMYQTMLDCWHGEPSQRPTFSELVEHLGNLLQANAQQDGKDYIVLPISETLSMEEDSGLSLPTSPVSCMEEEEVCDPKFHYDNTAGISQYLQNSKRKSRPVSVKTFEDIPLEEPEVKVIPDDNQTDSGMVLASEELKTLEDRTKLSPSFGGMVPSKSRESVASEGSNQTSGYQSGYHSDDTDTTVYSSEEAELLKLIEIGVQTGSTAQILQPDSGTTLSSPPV
row,Binder,"pERK Assay Results (AlphaLISA p-Erk1/2, HUVEC)"
1,{CH2CO}-WWVDVWDDLYFVDCG (thioether N-14; also: dimer joined at Gly15 C-termini by PEG12c-K-PEG12c) [Peptide complex Dimer Structure No. 3],≥ 50 % activity at 10 nM
2,B1,≥ 50 % activity at 10 nM
3,{CH2CO}-WWVDV[F4COO]DDLYFVDCG (thioether N-14; also: dimer: C-termini joined by PEG12c-K-PEG12c linker) [Peptide complex Dimer Structure No. 6],≥ 50 % activity at 100 nM
4,{CH2CO}-WWVDVQGDLYFVDCG (thioether N-14; also: dimer: C-termini joined by PEG12c-K-PEG12c linker) [Peptide complex Dimer Structure No. 7],≥ 50 % activity at 100 nM
5,{CH2CO}-WWVDVQDDLY[Bph]VDCG (thioether N-14; also: dimer: C-termini joined by PEG12c-K-PEG12c linker) [Peptide complex Dimer Structure No. 8],< 50 % activity at 100 nM
6,{CH2CO}-WWVDVQDDLYF[hPhe]DCG (thioether N-14; also: dimer: C-termini joined by PEG12c-K-PEG12c linker) [Peptide complex Dimer Structure No. 9],< 50 % activity at 100 nM
7,B2,< 50 % activity at 100 nM
8,B3,< 50 % activity at 100 nM
9,B4,< 50 % activity at 100 nM
10,B5,≥ 50 % activity at 100 nM

# Target: T1, VEGFR-2
# Assay: cell-based or functional assay
# Remark: another data set of the same source
row,Binder,"pERK Assay Results (AlphaLISA p-Erk1/2, HUVEC)"
1,B6,≥ 50 % activity at 20 nM
2,B7,≥ 50 % activity at 20 nM
3,B8,≥ 50 % activity at 20 nM
4,B9,≥ 50 % activity at 5 nM
5,B10,≥ 50 % activity at 5 nM
6,B11,≥ 50 % activity at 20 nM
7,B12,≥ 50 % activity at 20 nM
8,B13,≥ 50 % activity at 100 nM
9,B14,≥ 50 % activity at 10 nM
10,B15,≥ 50 % activity at 10 nM
11,B16,≥ 50 % activity at 10 nM
12,B17,≥ 50 % activity at 10 nM
13,B18,≥ 50 % activity at 10 nM
14,B19,≥ 50 % activity at 100 nM
15,B20,≥ 50 % activity at 100 nM
16,B21,≥ 50 % activity at 100 nM
17,B22,≥ 50 % activity at 100 nM
18,B23,≥ 50 % activity at 10 nM
19,B24,≥ 50 % activity at 10 nM
